Results as given in a protein production outcome set (Wang et al. 2014).

assay: label from the status in PepcDB records

**Q.** For “MTASLEIRPFQETDLDFVRQLARQEDFAPGIGDIAIYANTANQGVWLAWQGDMPVGCIAAVKYNLDYGFMGLFVVHPDHRGGGVGRQLWDHALALLADVTCIGLEAAPSMVEFYQRQGFRKDSITTRRQHLRLEESSQHPTRRLLHRNDITIVPLKAISLDAVQAYDERHEISPRPHFLQQWLNHQAGDVFVAMDGSHQCHGYVRIRPCLLPIGQGWRIGPLLAEEPGIASLLLSNAMDRHKGIILIDTPGHNRSARTVAGAKGFRRMGATHRMYKGDLDNGHDQNIYGLACLELG”, which protein production is on record?
**A.** failed

**Q.** With “MTASSKRTKKQAILETALQLFVSQGFHGTSTATIAREAGVATGTLFHHFPSKEQLLEQLFLGVKQEFADAIQASVSSRGDLKQDAEQLWFAALTWAMANPLKQAFFQLYSMSPTVEQSVRDQAMHGILGFIAELIRQGQASGELAEYPIELMQDNCHGQYLAATRYFVDHPERWQQAHERSASFALFWNAMAVR” as the sequence, how does the protein production read?
**A.** not failed

**Q.** With “MTATASTVLPARALLLDMDGTLVNSDAAVDRVWRRWADRHGLDGDEVMKVVHGRQGYASMALLLPDRPMEHNHADNARMLAEETADTEGVVAIPGAAEFLASLRGLPHALVTSADVALSTARMAAAGLAQPDVRVTAESVGASKPDPEGFLKGAAELGIAPADCVVFEDSGAGIAAGRAAGMRVVGVGPRAGFHGPDVVVEDLTRVRVEADADGGLRLHIG” as the sequence, how does the protein production read?
**A.** failed

**Q.** For “MTATEPTEKILPSPDYVQSLARGLAVIRCFDHRNQRRTLSDVARATDLTRATARRFLLTLVELGYVATDGSAFWLTPRVLELGYSYLSSLSLPEVAQPHLEKLSHKVHESSSVSILDGADIVYVARVPVSRIMTVGITIGTRLPAYATSMGRVLLAGLPDDELDAYLEKLDIQRLTERTITARDELKAAILAVRADGICVLDQELEAGLRSMAAPIRGASGLTVAAVNISTPAARYSLEDLHSDLIPSLRVTATDIEQDLATVNR”, which protein production is on record?
**A.** not failed

**Q.** With “MTATQITGVVLAAGRSNRLGTPKQLLPYRDTTVLGATLDVARQAGFDQLILTLGGAASAVRAAMALDGTDVVVVEDVERGCAASLRVALARVHPRATGIVLMLGDQPQVAPATLRRIIDVGPATEIMVCRYADGVGHPFWFSRTVFGELARLHGDKGVWKLVHSGRHPVRELAVDGCVPLDVDTWDDYRRLLESVPSLEHHHHHH” as the sequence, how does the protein production read?
**A.** failed

**Q.** Which protein production does the source give for “MTDACCLKGNEDKMVPRFGHGTWIGKAFNDTPEMLHERSLRQEKRLERANELMNDDSLQKLETAAMARSRSVDSAPLGNYTIWKNEYRRGKSFEDMLRLMQDQIIMARVYSGLAKFTNNLALHQEIETQLMKLAWEEESTDIDQEQRVLDSIRDMGQILARAHEQLYECKLVTNKLRAMLQTVEDELENEQTYITFLTQLASKALPDAIHCLTMRLNLEYHLLPLPMRNFPRRENLENPKLYHYALFSDNVLAASVVVNSTVMNAQDPSRHVFHLVTDKLNFGAMSMWFLLNPPGEATIHVQRFEDFTWLNSSYSPVLSQLESAAMKKFYFKTARSESVESGSENLKYRYPKYMSMLNHLRFYIPRIFPKLEKILFVDDDVVVQKDLTPLWSIDLKGKVNENFDPKFCGWAYGMNIFDLKEWKKNNITETYHFWQNLNENRTLWKLGTLPPGLITFYNLTQPLQRKWHLLGLGYDKGIDVKKIERSAVIHYNGHMKPWTEMGISKYQPYWTKYTNFDHPYIFTCRLFE” here?
**A.** failed

**Q.** With “MTDARPHLRLRLARPEDMPALSALMDRAIGELLQDFLPPEGVKASYEIMGLDTQLIADGTYFVVEDGAAIAGCGGWSRRATLFGGDHSAGRDAALLDPKTDAARVRAMYTHPDHTRKGVGRIILDACEAAARAEGFSSVEMAATMGGVPLYRACGYHDIEPFEAVTSTGYRVPLIRMGKAL” as the sequence, how does the protein production read?
**A.** failed

**Q.** For “MTDIHHQPEQTDDELYRHFFSRGGSLRLLADIQGEDLESLYGYAKQLFDGGEIAAARNVYQLLSTLDHWNFDYLLALGLCHQRLGAHNEAVVCFGRAGLIKVDDPRAAFYAGISYRLDGNAEYASKAFKAAINWCGEQIDYQAIKASAVDMLALQQEEVPC”, which protein production is on record?
**A.** failed

**Q.** Which protein production does the source give for “MTDKFLQFPVIDPIIFSIGPVSLRWYGTMYLIGFLAAMFMANKAADRSNGLWTRDQVSDVLFYGFLGVILGGRVGYVLFYQFEYFLSDPLYLFEIWQGGMSFHGGLLGVILAVFIFARKTNKSFLAVGDFVVPLVPIGLGMGRLGNFINAELWGRQTDVSWAMVFPTDPLQVPRHPSQLYEFALEGVVLFAILYIISRKTRSLGLASGTFLIGYGVFRSIVEFFREPDAHLGLYFSFISKGQILSIPMILAGILIIYLGYLSQQKSAIAQGDKALAAGGKSGKKTVKGNN” here?
**A.** failed
